{
  "source": "patent US20230382992A1",
  "key": {"[1]": {"target": "mouse TIM3 on cells (mouse) (UniProt Q8VIM0)", "sequence (Q8VIM0 20-281)": "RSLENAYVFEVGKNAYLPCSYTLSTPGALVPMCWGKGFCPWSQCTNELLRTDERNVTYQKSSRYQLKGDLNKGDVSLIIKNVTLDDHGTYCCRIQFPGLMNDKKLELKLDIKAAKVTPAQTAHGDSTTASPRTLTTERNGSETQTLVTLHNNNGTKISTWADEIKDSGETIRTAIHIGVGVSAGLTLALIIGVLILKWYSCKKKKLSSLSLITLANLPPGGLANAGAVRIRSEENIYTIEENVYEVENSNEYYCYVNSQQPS", "assay": "binding to activated mouse T cells (method not described)"}, "[2]": {"target": "mouse TIM3 on cells (mouse) (UniProt Q8VIM0)", "assay": "binding to activated mouse T cells, compared with TIM3.18 on human TIM-3"}},
  "data": [
    {"substance": "RMT3-23 rat anti-mouse TIM-3 antibody (Bio-X-Cell)", "values": [
      {"measurement": "EC50", "setting": "[1]", "value": 1.7, "unit": "nM"},
      {"measurement": "fold weaker EC50 than TIM3.18 on human TIM-3", "setting": "[2]", "value": 17, "unit": "fold"}
    ]}
  ]
}
